B1: PMPD2-L10FLAG-APP-IP (designed binder)
chain: EEKCTPGQVKQQDCNTCTCTPTGVWGCTLMGCQPAVPGVGVPGVGVPGLGVPGVGVPGVGVPGVGVPGVGVPGLGVPGVGVPGVGVPGVGVPGVGVPGLGVPGVGVPGVGVPGVGVPGVGVPGLGVPGVGVPGVGVPGVGVPGVGVPGLGVPGVGVPGVGVPGVGVPGVGVPGLGVPGVGVPGVGVPGVGVPGVGVPGLGVPGVGVPGVGVPGVGVPGVGVPGLGVPGVGVPGVGVPGVGVPGVGVPGLGVPGVGVPGVGVPGVGVPGVGVPGLGVPGVGVPGVGDYKDDDDKISYGNDALMP
B2: PMPD2-L10FLAG (designed binder)
chain: EEKCTPGQVKQQDCNTCTCTPTGVWGCTLMGCQPAVPGVGVPGVGVPGLGVPGVGVPGVGVPGVGVPGVGVPGLGVPGVGVPGVGVPGVGVPGVGVPGLGVPGVGVPGVGVPGVGVPGVGVPGLGVPGVGVPGVGVPGVGVPGVGVPGLGVPGVGVPGVGVPGVGVPGVGVPGLGVPGVGVPGVGVPGVGVPGVGVPGLGVPGVGVPGVGVPGVGVPGVGVPGLGVPGVGVPGVGVPGVGVPGVGVPGLGVPGVGVPGVGVPGVGVPGVGVPGLGVPGVGVPGVGDYKDDDDK
B3: APP-IP-L10FLAG (designed binder)
chain: ISYGNDALMPVPGVGVPGVGVPGLGVPGVGVPGVGVPGVGVPGVGVPGLGVPGVGVPGVGVPGVGVPGVGVPGLGVPGVGVPGVGVPGVGVPGVGVPGLGVPGVGVPGVGVPGVGVPGVGVPGLGVPGVGVPGVGVPGVGVPGVGVPGLGVPGVGVPGVGVPGVGVPGVGVPGLGVPGVGVPGVGVPGVGVPGVGVPGLGVPGVGVPGVGVPGVGVPGVGVPGLGVPGVGVPGVGVPGVGVPGVGVPGLGVPGVGVPGVGDYKDDDDK

Columns and labels:
[1] = target: T1, neutrophil elastase (human, UniProt P08246 30-247, limits assumed); test: cell-based or functional assay
T1 sequence (looked up): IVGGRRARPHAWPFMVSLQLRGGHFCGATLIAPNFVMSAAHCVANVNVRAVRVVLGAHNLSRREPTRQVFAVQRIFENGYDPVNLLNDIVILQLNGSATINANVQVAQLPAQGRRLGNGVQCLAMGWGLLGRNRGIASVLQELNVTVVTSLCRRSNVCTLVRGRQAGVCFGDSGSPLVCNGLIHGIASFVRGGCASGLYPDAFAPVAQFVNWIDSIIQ

[2] = target: Matrix metalloproteinase-2 (UniProt P08253 110-465, limits assumed); test: cell-based or functional assay
Chain of Matrix metalloproteinase-2 (P08253 110-465 limits assumed): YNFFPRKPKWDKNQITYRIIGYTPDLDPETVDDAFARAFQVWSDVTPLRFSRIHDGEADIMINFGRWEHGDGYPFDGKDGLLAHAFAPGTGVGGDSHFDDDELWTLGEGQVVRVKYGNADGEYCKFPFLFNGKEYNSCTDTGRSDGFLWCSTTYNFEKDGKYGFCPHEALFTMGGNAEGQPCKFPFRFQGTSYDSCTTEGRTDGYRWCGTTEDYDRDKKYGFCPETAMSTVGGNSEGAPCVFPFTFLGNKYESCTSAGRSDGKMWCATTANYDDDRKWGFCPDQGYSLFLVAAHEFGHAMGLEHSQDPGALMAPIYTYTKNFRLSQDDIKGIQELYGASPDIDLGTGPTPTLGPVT

Row | Binder | IC50 of NE inhibition (kinetic colorimetric substrate assay) [1] [µg/mL] | IC50 of MMP-2 inhibition (kinetic colorimetric substrate assay) [2] [µg/mL] | % inhibition of NE near the IC50 of the dual inhibitor [1] [%]
1 | B1 | 0.00085 | 40 | 
2 | B2 | 0.00708 |  | 
3 | B3 |  | 50 | 8.4

— US20250235516A1 (UNIVERSITY OF SOUTH FLORIDA, published 2025)
